Measurements reported in PMC11343034, “CDCA7 is an evolutionarily conserved hemimethylated DNA sensor in eukaryotes”.

T1: CDCA7L 322-454 (Homo sapiens, UniProt Q96GN5 322-454)
T1 sequence: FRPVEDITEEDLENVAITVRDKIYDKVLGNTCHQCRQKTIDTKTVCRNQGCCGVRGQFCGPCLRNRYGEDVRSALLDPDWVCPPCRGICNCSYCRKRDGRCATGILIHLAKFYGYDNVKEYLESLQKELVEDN

T2: C. gigas CDCA7 homolog (Crassostrea gigas, UniProt A0A8W8IWK5 1-264)
T2 sequence: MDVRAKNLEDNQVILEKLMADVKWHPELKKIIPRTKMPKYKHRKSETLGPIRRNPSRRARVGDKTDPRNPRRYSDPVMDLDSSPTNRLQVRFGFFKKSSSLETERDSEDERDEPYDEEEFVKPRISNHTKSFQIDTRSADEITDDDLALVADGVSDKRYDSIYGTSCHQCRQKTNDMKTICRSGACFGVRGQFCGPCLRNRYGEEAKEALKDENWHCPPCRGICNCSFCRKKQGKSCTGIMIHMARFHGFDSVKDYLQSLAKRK

T3: A. thaliana CDCA7 homolog (Arabidopsis thaliana, UniProt Q0WPT6 1-417)
T3 sequence: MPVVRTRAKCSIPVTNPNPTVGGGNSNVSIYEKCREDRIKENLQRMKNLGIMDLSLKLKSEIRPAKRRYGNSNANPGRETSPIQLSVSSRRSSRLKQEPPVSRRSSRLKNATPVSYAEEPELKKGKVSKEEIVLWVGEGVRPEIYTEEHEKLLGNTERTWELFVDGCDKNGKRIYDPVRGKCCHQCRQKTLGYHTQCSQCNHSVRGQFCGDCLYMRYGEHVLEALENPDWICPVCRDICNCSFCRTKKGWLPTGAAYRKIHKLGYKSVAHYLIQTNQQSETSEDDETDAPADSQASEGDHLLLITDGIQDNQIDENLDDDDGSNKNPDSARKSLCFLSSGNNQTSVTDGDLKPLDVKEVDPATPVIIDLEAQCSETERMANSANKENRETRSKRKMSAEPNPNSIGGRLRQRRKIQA

T4: N. vectensis CDCA7 homolog (Nematostella vectensis, UniProt A7SQU1 1-157)
T4 sequence: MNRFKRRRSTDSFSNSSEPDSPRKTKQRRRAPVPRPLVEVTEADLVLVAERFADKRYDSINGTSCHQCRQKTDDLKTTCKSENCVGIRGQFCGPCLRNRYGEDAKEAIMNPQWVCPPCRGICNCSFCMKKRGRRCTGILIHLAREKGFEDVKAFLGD

T5: hCDCA7 264-371 C339S (Homo sapiens, UniProt Q9BWT1 264-371, C339S)
T5 sequence: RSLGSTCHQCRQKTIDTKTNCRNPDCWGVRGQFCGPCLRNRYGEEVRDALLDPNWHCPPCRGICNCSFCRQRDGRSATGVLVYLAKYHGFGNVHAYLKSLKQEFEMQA

B1: 54-bp hemi-Me (F) (dsDNA)
DNA 1: GCGGGTGATGGACCCTATACGCGGCCGCCCTGGAGAATCCCGGTGCCGCGGCCG
DNA 2: CGGCCGCGGCACCGGGATTCTCCAGGGCGGCCGCGTATAGGGTCCATCACCCGC
modifications: 5mC at 41,47,49,53 of strand 1
B2: -62W free DNA (dsDNA)
DNA 1: ATCAGAATCCCGGTGCCGAGGCCGCTCAATTGGTCGTAGACAGCTCTAGCACCGCTTAAACGCACGTACGCGCTGTCCCCCGCGTTTTAACCGCCAAGGGGATTACTCCCTAGTCTCCAGGCACGTGTCAGATATATACATCGAT
DNA 2: ATCGATGTATATATCTGACACGTGCCTGGAGACTAGGGAGTAATCCCCTTGGCGGTTAAAACGCGGGGGACAGCGCGTACGTGCGTTTAAGCGGTGCTAGAGCTGTCTACGACCAATTGAGCGGCCTCGGCACCGGGATTCTGAT
modifications: 5mC at 11 of strand 1
B3: -64C free DNA (dsDNA)
DNA 1: ATCAGAATCCCGGTGCCGAGGCCGCTCAATTGGTCGTAGACAGCTCTAGCACCGCTTAAACGCACGTACGCGCTGTCCCCCGCGTTTTAACCGCCAAGGGGATTACTCCCTAGTCTCCAGGCACGTGTCAGATATCGACATCGAT
DNA 2: ATCGATGTCGATATCTGACACGTGCCTGGAGACTAGGGAGTAATCCCCTTGGCGGTTAAAACGCGGGGGACAGCGCGTACGTGCGTTTAAGCGGTGCTAGAGCTGTCTACGACCAATTGAGCGGCCTCGGCACCGGGATTCTGAT
modifications: 5mC at 9 of strand 2

Columns and labels:
CDCA7L 322-454 = biological target: T1, CDCA7L 322-454; test: pull-down; egg extract; Oligo EMSA: 20 mM Tris-HCl pH 7.5, 150 mM NaCl, 1 mM DTT, 0.05% NP-40, 10% glycerol, 4 C, 0.5 uM DNA; nucleosome EMSA: same with 50 mM NaCl, 0.1 uM nucleosome; conditions: protein: ivt; tags: 35S-Met; label: 5' biotin on strand 2; blunt
C. gigas CDCA7 homolog = biological target: T2, C. gigas CDCA7 homolog; test: pull-down; boiled extract; Oligo EMSA: 20 mM Tris-HCl pH 7.5, 150 mM NaCl, 1 mM DTT, 0.05% NP-40, 10% glycerol, 4 C, 0.5 uM DNA; nucleosome EMSA: same with 50 mM NaCl, 0.1 uM nucleosome; conditions: protein: ivt; tags: 35S-Met; label: 5' biotin on strand 2; blunt
[1] = biological target: T3, A. thaliana CDCA7 homolog; test: as above; conditions: protein: ivt; tags: 35S-Met; label: 5' biotin on strand 2; blunt
[2] = biological target: T4, N. vectensis CDCA7 homolog; test: as above; conditions: protein: ivt; tags: 35S-Met; label: 5' biotin on strand 2; blunt
hCDCA7 264-371 C339S = biological target: T5, hCDCA7 264-371 C339S; test: EMSA; free DNA preferred over nucleosome; Oligo EMSA: 20 mM Tris-HCl pH 7.5, 150 mM NaCl, 1 mM DTT, 0.05% NP-40, 10% glycerol, 4 C, 0.5 uM DNA; nucleosome EMSA: same with 50 mM NaCl, 0.1 uM nucleosome; conditions: protein: recombinant; tags: GST-SUMO removed; blunt

Binder	binding result (CDCA7L 322-454)	binding result (C. gigas CDCA7 homolog)	binding result [1]	binding result [2]	binding result (hCDCA7 264-371 C339S)
B1	binds	binds	binds	binds	–
B2	–	–	–	–	binds
B3	–	–	–	–	binds
